Measured values taken from paper PMC9076864, “Cryo-EM structures of thylakoid-located voltage-dependent chloride channel VCCN1” (Nature Communications, 2022).

Molecular target: the molecule itself
Assay: cryo-EM structure; single-particle cryo-EM of the channel reconstituted in MSP1E3D1/SoyPC nanodiscs; 50 mM Tris pH 8.0, 150 mM NaCl; C5 symmetry imposed

B1: Malus domestica VCCN1, N-terminally truncated "wild-type" construct (natural protein)
chain: MPNPSPPSSSSPVQTLISILRIIPDWSDRTQERGMRQHRTLYDHEKWMHHRSSYRHLRHLLSSLSSRVILSLIPPVIAFTLVAVVIASYNTAVALDLLPGIFPLLRSSSLPYQLTAPALALLLVFRTEASYSRFEEGRKAWTEVIAGANDFARQIISSVETSGDAQLKKALLQYIVAFPVALKCHVIYGSDIARDLQNLLEVDDLLVVLNSKHRPGCIIQFISRSLQLLKLEESRRIMLQSKISCFHEGIGICEQLIGTPIPLSYTRLTSRFLVLWHLTLPIILWDDCHWIVVPATFISAASLFCIEQVGVLIEEPFPMLALDDLCNSVRNNVQEALASEKLIRARLAAKGRIQSEQQFQNGQPRPENLYFQ
B1 was tested, and the “stoichiometry N” value was 5.
